According to patent US7105638B1:

Biological target: Example III polypeptide 2 (modified truncated TRP-LE - Asp-Leu hinge - Glu - salmon calcitonin Asp 15 analog) (salmon) (UniProt P01263)

S. aureus V-8 protease (from UniProt P0C1U8) (enzyme)
completeness of cleavage at the Glu residue amino terminal to calcitonin: > 95%
